Source: the supplement of paper PMC9233669
Variants at the floor of the assay were thinned out.

What was measured:
biotinyl-Phe-oxazolone = assay: self-aminoacylation, catalytic enhancement (BFO) (fold over background); higher = more active; k-Seq, kA / k0A0; sequences stand for … in GGGAAUGGAUCCACAUCUACGAAUUC…UUCACUGCAGACUUGACGAAGCUG
Summary of the method: (§1)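 Mutagenized RNA pools (0.43 μM; 21-nt variable region) were treated with 2–1250 μM of each biotinyl-aminoacyl-oxazolone. Conditions were 50 μL HEPES/NaCl/KCl/MgCl2/CaCl2 buffer, 5% acetonitrile, pH 6.9–7.0, room temperature, 90 minutes. Catalytic enhancement, the median kA relative to the uncatalyzed rate, was derived from streptavidin capture, qPCR and Illumina sequencing.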

biotinyl-Ile-oxazolone = assay: self-aminoacylation, catalytic enhancement (BIO) (fold over background); higher = more active; k-Seq, kA / k0A0; sequences stand for … in GGGAAUGGAUCCACAUCUACGAAUUC…UUCACUGCAGACUUGACGAAGCUG
Summary of the method: as §1

biotinyl-Met-oxazolone = assay: self-aminoacylation, catalytic enhancement (BMO) (fold over background); higher = more active; k-Seq, kA / k0A0; sequences stand for … in GGGAAUGGAUCCACAUCUACGAAUUC…UUCACUGCAGACUUGACGAAGCUG
Summary of the method: as §1

biotinyl-Val-oxazolone = assay: self-aminoacylation, catalytic enhancement (BVO) (fold over background); higher = more active; k-Seq, kA / k0A0; sequences stand for … in GGGAAUGGAUCCACAUCUACGAAUUC…UUCACUGCAGACUUGACGAAGCUG
Summary of the method: as §1

biotinyl-Leu-oxazolone = assay: self-aminoacylation, catalytic enhancement (BLO) (fold over background); higher = more active; k-Seq, kA / k0A0; sequences stand for … in GGGAAUGGAUCCACAUCUACGAAUUC…UUCACUGCAGACUUGACGAAGCUG
Summary of the method: as §1

biotinyl-Trp-oxazolone = assay: self-aminoacylation, catalytic enhancement (BWO) (fold over background); higher = more active; k-Seq, kA / k0A0; sequences stand for … in GGGAAUGGAUCCACAUCUACGAAUUC…UUCACUGCAGACUUGACGAAGCUG
Summary of the method: as §1

Sequence | self-aminoacylation (biotinyl-Phe-oxazolone) | self-aminoacylation (biotinyl-Ile-oxazolone) | self-aminoacylation (biotinyl-Met-oxazolone) | self-aminoacylation (biotinyl-Val-oxazolone) | self-aminoacylation (biotinyl-Leu-oxazolone) | self-aminoacylation (biotinyl-Trp-oxazolone)
AUUCCCCAGGUCAUCGAGUGA [Fam2.1 aminoacylation ribozyme variant] | 21.1 | 3.12 | 4.86 | 3.75 | 4.83 | 6.65
AUUACCCUCGUCAUCGAGUGU [Fam2.1 aminoacylation ribozyme variant] | 1.56 | 1.34 | 1.88 | 1.4 | 2 | 1.49
AUUACCCUGGGAAUCGAGUGA [Fam2.1 aminoacylation ribozyme variant] | 26.8 | 2.78 | 5.72 | 3.29 | 5.93 | 4.59
AUUACCCUUGUCAUCGAGUCA [Fam2.1 aminoacylation ribozyme variant] | 0.6 | 0.895 | 0.756 | 0.841 | 0.708 | 0.591
CCGCACUUAAAGCAAUCGGUC [Fam1B.1 aminoacylation ribozyme variant] | 0.932 | 1.13 | 1.1 | 1.25 | 1.05 | 1.15
AUUCACUUAGGUCAUCGUGUG [Fam2.2 aminoacylation ribozyme variant] | 0.821 | 0.779 | 0.802 | 0.777 | 0.869 | 0.747
AAGAUUGCUAAAAGUCGCAAG [Fam3.1 aminoacylation ribozyme variant] | 3.21 | 1.66 | 1.87 | 1.61 | 1.76 | 1.56
ACGUUUGCAAAUAGUCGCAAG [Fam3.1 aminoacylation ribozyme variant] | 1.27 | 1.57 | 1.38 | 1.2 | 1.29 | 1.2
AUUACUCUGGUCAUCGAGUGU [Fam2.1 aminoacylation ribozyme variant] | 4.35 | 2.52 | 4.24 | 2.57 | 4.37 | 3.92
AUGCACCUAGGUCAUCGGGCG [Fam2.2 aminoacylation ribozyme variant] | 13.5 | 2.08 | 2.37 | 2.47 | 3.22 | 2.53
AUUCACGUAGGUCAUCGGGGG [Fam2.2 aminoacylation ribozyme variant] | 1.73 | 2.24 | 2.66 | 2.09 | 2.4 | 2.53
AUUCACCUAGGGCAUCAGGUG [Fam2.2 aminoacylation ribozyme variant] | 1.46 | 1.35 | 1.6 | 1.46 | 1.7 | 1.55
AAGUUUGCCAAUAGUCGCGAG [Fam3.1 aminoacylation ribozyme variant] | 11.6 | 1.61 | 1.96 | 2.09 | 2.25 | 3.77
AUUACCUUGAUCAUCGAGUGA [Fam2.1 aminoacylation ribozyme variant] | 37.6 | 3.94 | 8.63 | 4.44 | 8.21 | 10.7
AAGUUUGCUGAUAGUCACAAG [Fam3.1 aminoacylation ribozyme variant] | 1.23 | 1.15 | 1.2 | 1.28 | 1.08 | 1.62
CAACACUUCAACCAAUCGGUC [Fam1B.1 aminoacylation ribozyme variant] | 45.6 | 1.28 | 1.58 | 1.36 | 2.04 | 28.2
CUACUUCUAUCAAUCGGUCUG [Fam1A.1 aminoacylation ribozyme variant] | 0.796 | 0.7 | 0.636 | 0.63 | 0.554 | 0.493
CCACACUGUAAGCAAUCGGUC [Fam1B.1 aminoacylation ribozyme variant] | 0.898 | 1.06 | 0.953 | 1.14 | 1.09 | 1.16
CCACACUUCAAGCAAUCCGUA [Fam1B.1 aminoacylation ribozyme variant] | 0.597 | 0.876 | 0.668 | 1.04 | 0.927 | 0.837
UUUAACCUAGGUCAUCGGGUG [Fam2.2 aminoacylation ribozyme variant] | 36.3 | 5.19 | 5.87 | 4.48 | 7.42 | 7.19
AUUAUCCUGGUCAUUGAGUGA [Fam2.1 aminoacylation ribozyme variant] | 67.5 | 5.33 | 11.7 | 5.05 | 11.7 | 13.9
